Results on one substance are retold here after patent publication US20210123065.

For this data set, the system named is Che9c RecT annealase (Mycobacteriophage Che9c). As to the kind of experiment: cell_activity. The following applies: oligo recombineering, about 1 ug oligo, M. smegmatis.

Regarding “180-mer hyg oligo carrying 60 base insertion”, the activity (recombinants per survivor) turned out to be 2e-06.
